This series in a line: soluble on expression in E. coli; label from the status in PepcDB or PDB records.
As to “MGSDKIHHHHHHMRDFLKSAFGRSKPKQLRILPQDVTIEIGQGQTLLEAALANGIAYPHDCTVGTCASCKTRLKQGRVREATPFGYTLSKDELDAGYILACQAFPKDELTVVEIDSSAGDLMPAEKYTANIIATEPLTHDILRVTVQTDRAVSYAAGQYANLRKAGGGRARSYSFANAPQRKGRTLLEFYIRKVPGGEFTESLFGGELKGVSLEMEAPLGTFHLRAGDSHMVCIAGGSGLAPLVSILEHARGNRIKRDCTLLFGARTQADLYQLDAIGSIASNWQGDFRFIPVLSDEPLDSDWKGARGLVTDHIAPGFCEGGEGYLCGPPLMIDAAIASLAKHGIPLEKVFYDKFTDSRDR”, the “soluble on expression in E. coli” value is given as “not soluble”.
Take “SSSGLNSEKVAALIQKLNSDPQFVLAQNVGTTHDLLDICLKRATVQRAQHVFQHAVPQEGKPITNQKSSGRCWIFSCLNVMRLPFMKKLNIEEFEFSQSYLFFWDKVERCYFFLSAFVDTAQRKEPEDGRLVQFLLMNPANDGGQWDMLVNIVEKYGVIPKKCFPESYTTEATRRMNDILNHKMREFCIRLRNLVHSGATKGEISATQDVMMEEIFRVVCICLGNPPETFTWEYRDKDKNYQKIGPITPLEFYREHVKPLFNMEDKICLVNDPRPQHKHNKLYTVEYLSNMVGGRKTLYNNQPIDFLKKMVAASIKDGEAVWFGCDVGKHFNSKLGLSDMNLYDHELVFGVSLKNMNKAERLTFGESLMTHAMTFTAVSEKDDQDGAFTKWRVENSWGEDHGHKGYLCMTDEWFSEYVYEVVVDRKHVPEEVLAVLEQEPIILPAWDPMGALA”: the “soluble on expression in E. coli” value is recorded as “soluble”.
With “MSTASVLDDIDYDSSFEMVEEEKFEKIENTDNSENFQYVSTKGNTVKEVNINSNEKKKKEAPIQILTAMIGKWKLASSENLQEYFTLEKFPEITQMAWEHGITCYKMNGNQLHVHTDLLGKSLIPTIFEFDKPIARDDNAVSTHAEGNMMSTICKRIADGSIVWKVERLIKNGNLVVFNSRGNFRCKRVYKRVN”, the “soluble on expression in E. coli” value is listed as “not soluble”.
In the case of “MGSDKIHHHHHHMIEITHGDILRADTEAIVNTVNCVGVMGRGIALQFKKAWPDNFKAYAAACNSKNVQPGKMFIFETGQLANPRFIINFPTKRHWKGASRIEDIESGLVALVADIQRLGIKSIAIPPLGAGLGGLDWLVVRDKIEAAMQPLTDVQILLYEPAGAPQNDRIAKQKEVPKMTAGRAVLIELMQRYLKGLLDPTVSLLEVHKLLYFMQEAGEPLRLKYEKAHYGPYAQNLRHVLNAIEGHFISGYADGGDKPEKELRLVPGAVKEAQEFLEQHPDTRERFTKVSELVEGFESPLGLELLATVHWLNKYEHVRSTDQVIESVHSWNTRKQLFTARQITIAEKVLARQNWLSA”, the “soluble on expression in E. coli” value is reported as “not soluble”.
For “ILTENTPYFEQLSVPQRSVGRIIGRGGETIRSICKASGAKITCDKESEGTLLLSRLIKISGTQKEVAAAKHLILEKVSEDEELRKRIAHSA” the value was “soluble”; for “MGSDKIHHHHHHMQHWAIFATDSYSGSLLGRMLAADIQPDEGQICNLPARVGWVSLGLQQALLERELAKDELDYGSTVEALVLECCQDSAQLPALLQKVGLEPLRQRGFRQLSTGETRRVMLARALAMLPQLLILDDPYAGLDAEHQGSLSELLCEVAAHSQLLVITSRQEELPPCISHVALFNSEMLKSGQHVHKLSAPMSIEQWHSHPVMAQLNALSASRSDELLALMERQRHNAEAFDPLVEIKNGKVEYVSCLIFKGVNWRINAGQHWQVRGPNGCGKSTLLGLILGDHPQCYSNDITLFGRPRGSGESIWQIKQRIGIVSSALHLQYRVSCSALDVLLSGFYDSIGLYHKPTKPQVDLAKEWLAILHMNEFASTGFKQLDYGQQRLLLIGRALIKQPLLLILDEPYQGLDFINRTLVMRALEMIAEHHLSQLLYVSHHREDALPAIKNFVDFIKQDNGYSVEVSHRPNELAQRMPIP”, “not soluble”.
For “MSRKFPSFIVDAFTTKSFAGNPAAVCLIPEVFKDQEYLKIAAEFNLSETAFPVPIGSTDFKTCSQFSLRWFTPKTEVPLCGHATLATSHVLFNEVGNVNKEIKFDTQSGVLIAKRDEKGNVEMNFPEYDLASVKFNDTPNPLQGIFSEFEAPSFLFEVIKCVVPTEMIIESVVYSSKSRKLIVIVDPETTKFELEAVRIDCSKMLEIHDGSFVRGLAISLRPSNPMAQGFVDSSDEPYDYACRYFAPWVGIDEDPATGSAQCVMGPFWSKMLGKNELYAFQAFPTRGAQFRIRLQDDRVILNGPSVTVLRGELALN”, the “soluble on expression in E. coli” value is recorded as “not soluble”.
On to “GMSNALATLASPADDIAFYEERLRAAMLTGDLKGLETLLADDLAFVDHTGCVKTKQTHLEPYRAGLLKLSRLDLSDAVVRAAGEDGRVVVVRAVTAGVYDGEAFTETLRFTRIWRRTQGPAGWKLVAGHCSVIL”, for which the “soluble on expression in E. coli” value is reported as “soluble”.
Turning to “MSLNQPDLFSSTSGTVGGLAVQSILEGFKSHYARDQETELSLEEYLSLAKQDPMAYASPAERMLAAIGEPELIDTRNDPRLSRLFSNRLVRRYPAFKEFYGLEDVIDQIVAFFKHAAQGLEERKQILYLLGPVGGGKSSIAERLKVLMEAYPIYALKGSPVNESPLGLFHPDRFGDTLEQEYGIARRYLCGIMSPWAVKRLREFDGDISQFRVVRLNPSVLRQVAIAKTEPGDENNQDISSLVGKVDIRKLERYAQDDPDAYSYSGGLCLANQGLLEFVEMFKAPIKMLHPLLTATQEGNFKGTEGFSAIPFNGMILAHSNESEWQTFRNNKHNEAFLDRIYIVKVPYCLQVSEEVCIYEKLLRHSSLAQAPCAPGTLDMMAQFSVLTRLKEPENSSIYSKLRVYDGESLKDVDPKAKALQEYKDYAGTDEGMTGVSTRFAYKILSSVFNYDQTEVAANPVHLMYVLEQRIAREDFPEETRRRYLEFIKGYLAPRYAEFIGKEIQTAYLESYSEYGQNIFDRYVTFADCWIQDEEFRDPETGESFDRSALNDELEKIEKPAGIANPKDFRNEIVNFVLRARANNAGRNPNWTSYEKLREVIEKKMFSNTEDLLPVISFNAKASAEDRSKHQSFVDRMVDKGYTEKQVRLLCEWYLRVRKSSEGHHHHHH”, the “soluble on expression in E. coli” value is on record as “soluble”.
For the sequence “GSHMRKTLVLLGAHGVGRRHIKNTLITKHPDRFAYPIPHTTRPPKKDEENGKNYYFVSHDQMMQDISNNEYLEYGSHEDAMYGTKLETIRKIHEQGLIAILDVEPQALKVLRTAEFAPFVVFIAAPTITPGLNEDESLQRLQKESDILQRTYAHYFDLTIINNEIDETIRHLEEAVELVC”, the “soluble on expression in E. coli” value is reported as “soluble”.
As for “ITDHNTLSGVSKMVEACKINKRFLNNKCPQILAGIEISCSDKHHVVVILNNKDMDMMQKAEDWLTNYIISDDGTYLPSLLVIEAFVEIGAIAYIAHFNTSDLFKKPKFLSGLYIDKLFSTKKMEIIGLSNMDSKLAIEEKLSNYTKRKFHFILDEDSHTLEELCTKPFWIK”, the “soluble on expression in E. coli” value is given as “not soluble”.
Turning to “DCSPLSLLFGHSDAVVQALYSNNPVLHCLNSALAQTAKALAGTRRDLRVLEVGAGTGATTRHLLPMLEEHLSEYRFTDVSNLFLTQAQEHFAAWPQLTCSMLDVNQPVDFSQHPAQGYDLVVAVNVMHDAAHVTRSLKRLHRLLRSGGHLLLLEATERDSALQLASIGFIEGLSNFEDERSEDDKAMLDLPRWRTAVQASGFSWVMNWPQQADDSM”, the “soluble on expression in E. coli” value was “not soluble”.
Consider “MTKQYLTHRCLIAPPEMADDFFANTVIYLARHDDEGAQGLIINRPSGIQVRELLNDLDIEADHVQPHEVLQGGPLRPEAGFVLHTGQPVWHSSIAVGENLCITTSKDILDAIAHNEGVGRYQIALGYASWTKNQLEGEISRGDWLICDADMDLIFNLPYDERWDAAYKKLGVDRIWLSSEIGHALEHHHHHH”, for which the “soluble on expression in E. coli” value is listed as “soluble”.
In the case of “SNAMKWKKSLAGLSSYKPGKREEEVMAELGLTKITKLSSNENPLGTSKKVAAIQANSSVETEIYPDGWASSLRKEVADFYQLEEEELIFTAGVDELIELLTRVLLDTTTNTVMATPTFVQYRQNALIEGAEVREIPLLQDGEHDLEGMLNAIDEKTTIVWICNPNNPTGNYIELADIQAFLDRVPSDVLVVLDEAYIEYVTPQPEKHEKLVRTYKNLIITRTFSKIYGLASARVGYGIADKEIIRQLNIVRPPFNTTSIGQKLAIEAIKDQAFIGECRTSNANGIKQYEAFAKRFEKVKLYPANGNFVLIDLGIEAGTIFSYLEKNGYITRSGAALGFPTAVRITIGKEEDNSAVIALLEKLL”, the “soluble on expression in E. coli” value is recorded as “soluble”.
Take “MAHHHHHHMGTLEAQTQGPGSMSSSIEIFPDSDILVAAAGKRLVGAIGAAVAARGQALIVLTGGGNGIALLRYLSAQAQQIEWSKVHLFWGDERYVPEDDDERNLKQARRALLNHVDIPSNQVHPMAASDGDFGGDLDAAALAYEQVLAASAAPGDPAPNFDVHLLGMGPEGHINSLFPHSPAVLESTRMVVAVDDSPKPPPRRITLTLPAIQRSREVWLLVSGPGKADAVAAAIGGADPVSVPAAGAVGRQNTLWLLDRDAAAKLPS”: the “soluble on expression in E. coli” value is reported as “soluble”.
Turning to “MMAIQASDMDISRFGSEIFRNSPRQSDLMIVSGTVTKKMAPRVRRIYDEMPYPKYVIAQGVCVIQGGPYNQGYSVVLGVDKVVPVDVYVPGCPPTPEALTNGIILLQKKIRGEADRLEHHHHHH”, the “soluble on expression in E. coli” value was “not soluble”.
Consider “MRKERRMIKLAIFDMDGTLTDEPSSWEYVHRRLHTDNHMNFRLYRNGFISYEEFFRSDVLAWLRMHPRLKKDDIAGILRDIKLRDGSSEVVNGLKERGLITAVVSGGISWLCDILNEYMQIDYNLSNVIATDEGGFVQPWGYIRVIPERKNIAVKSLQSMLHISKDETISIGDSMENGMIHINSSKAYIIGGKGRHGEIPLGNNIRNLLSYI”, for which the “soluble on expression in E. coli” value is on record as “not soluble”.
As for “MGLVTSILGRREYRLLQNSVTKKHLCKFMGVEFDYNDLDEITEIRVGENIFDTFESYARFAMKDTMKSIFAECKAMKTCLARIEREKQTEASMNHKIRQCYITLRRLCQLYYKFYQDLEKLKIPEHAWNVPLVKKAEKSIVVLDHAIYKFKAKGNLDVKKFREEVSHQYNIIEEVLKQFKSMDEGEYVEMRMKEEMKTEEA”, the “soluble on expression in E. coli” value is given as “not soluble”.
Take “MANSSPCMKAVRVPKSEAEQVRRLAEKLGVKDKSRRITATGDYVEIPIIDSAESFFKGYTIVEQDNPVFSRKRSLREILRGKVPEELIPTNYKVIGDIVVVKLDERAREYAKVIGEALMQINPCKAVWCDYGRYGMKRKPRMELIAGEGSVTEHRENGCRFRIDVAKVMFSLGNQAERMRIARLVEDGEVVVDMFAGIGYFSIPIAVHSKARRIYSIEINPESYKLLLENIKLNDVGNIVPILGDSQFVTPEGVADRVVMGHIYCHDYLHTAIRALKERGVVHYHEATPEAVIDRPVRRVEKACRKMGKKCRILGFKKVKNYSPGVYHVVVDAEVY”: the “soluble on expression in E. coli” value is “not soluble”.
Regarding “GANDRYTETKRIVDSHCLHTICSSGRCPNMGECWGKGTATFMIGGDICTRSCKFCNTQTGRPHPLDANEPTHVAESIALMKLDHAVVTSVDRDDLPDLGAGHWAHTIREIKRLNPQTTIEVLIPDFQGRMELVDLVIEANPDIISHNMETVRRISPLVRSAANYDTSLQVIGHIARSGTKSKSGIMVGLGETPQEVETIMDDLLAVGCQILTIGQYLQPTHRHYPVAEYVTPQQFATYKTIGLEKGFSIVESAPLVRSSYHAEKHIR”, the “soluble on expression in E. coli” value is reported as “not soluble”.
Consider “MIGVVIPAHNEEQLLADCLRCALKAASHPELNEDVAILVVLDSCSDGSLDIARQFAVQHLQLQVRNVGRARAAGAQLLLQAGARWLSCTDADSRVPEDWLVAQLALGADAVCGTVTVDRWSESFEPQARIRYHDAYQDSDGHRHIHGANLGISAAAYVRAGGFEALACHEDVQLVRQLQRCGASIAWSRHPQVITSGRLDSRAKGGFGDYLKGLNEPCAGLLEHHHHHH”, for which the “soluble on expression in E. coli” value is listed as “not soluble”.

These data come from the DeepSol protein solubility set.
